These results are taken from patent US20250352667A1.

Assay [1] addresses KEAP1 (wild-type full-length), His-tagged (human) (UniProt Q14145). The assay is described as follows: AlphaScreen; 38.4 nM FLAG-NRF2, 150 nM His-KEAP1; Rep 1; control for I28V. On the technique in general: Bead proximity is the source of the signal in Alpha formats.
For assay [2] the target is unchanged. Briefly: AlphaScreen; 38.4 nM FLAG-NRF2, 150 nM His-KEAP1; Rep 2; control for I28V.
Assay [3] shares this target. The assay is described as follows: AlphaScreen; 38.4 nM FLAG-NRF2, 150 nM His-KEAP1; Rep 3; control for I86V.
Assay [4] has the same target. The assay is described as follows: AlphaScreen; 76.8 nM FLAG-NRF2, 150 nM His-KEAP1; Rep 2; control for I86V.
Assay [5] has the same target. Briefly: AlphaScreen; 153.6 nM FLAG-NRF2, 150 nM His-KEAP1; Rep 2; control for I28V.
For assay [6] the target is unchanged. The assay is described as follows: AlphaScreen; 614.4 nM FLAG-NRF2, 150 nM His-KEAP1; Rep 1; control for I28V.
Assay [7] shares this target. Briefly: AlphaScreen; 307.2 nM FLAG-NRF2, 150 nM His-KEAP1; Rep 3; control for I86V.
Assay [8] has the same target. Briefly: AlphaScreen; 9.6 nM FLAG-NRF2, 150 nM His-KEAP1; Repeat 1 (same value as in Table 26).
The target is the same in assay [9]. Briefly: AlphaScreen; FLAG-NRF2 wt isoform 1 4.8 nM, His-KEAP1 150 nM; Rep 2; positive control for Q75R.
For assay [10] the target is unchanged. The assay is described as follows: AlphaScreen; FLAG-NRF2 wt isoform 1 38.4 nM, His-KEAP1 150 nM; Rep 3; positive control for I86V.
The target is the same in assay [11]. Briefly: AlphaScreen; FLAG-NRF2 wt isoform 1 153.6 nM, His-KEAP1 150 nM; Rep 2; positive control for Q75R.
Assay [12] shares this target. Briefly: AlphaScreen; FLAG-NRF2 wt isoform 1 307.2 nM, His-KEAP1 150 nM; Rep 1; positive control for Q75R.
Assay [13] shares this target. The assay is described as follows: AlphaScreen; FLAG-NRF2 wt isoform 1 614.4 nM, His-KEAP1 150 nM; Rep 1; positive control for Q75R.
For assay [14] the target is unchanged. The assay is described as follows: AlphaScreen, all variants on one plate; average of three conditions, KEAP1 150 nM; the reference itself.
For assay [15] the target is unchanged. The assay is described as follows: AlphaScreen; NRF2 wt isoform 1 614.4 nM, KEAP1 150 nM; signal against NRF2-only control; control for Q75R.
Assay [16] shares this target. The assay is described as follows: AlphaScreen; FLAG-NRF2 Q75R 153.6 nM, His-KEAP1 150 nM; Rep 1.
The target is the same in assay [17]. Briefly: AlphaScreen; FLAG-NRF2 Q75R 19.2 nM, His-KEAP1 150 nM; Repeat 1.
Assay [18] has the same target. The assay is described as follows: AlphaScreen; FLAG-NRF2 I86V 2.4 nM, His-KEAP1 150 nM; Rep 3.
The target is the same in assay [19]. The assay is described as follows: AlphaScreen; FLAG-NRF2 I86V 38.4 nM, His-KEAP1 150 nM; Rep 2.
The target is the same in assay [20]. The assay is described as follows: AlphaScreen; FLAG-NRF2 I86V 614.4 nM, His-KEAP1 150 nM; Rep 2.
Assay [21] has the same target. The assay is described as follows: AlphaScreen; FLAG-NRF2 I86V 1228.8 nM, His-KEAP1 150 nM; Rep 1.
Assay [22] has the same target. Briefly: AlphaScreen; 9.6 nM FLAG-NRF2, 150 nM His-KEAP1; Rep 2.
Assay [23] shares this target. The assay is described as follows: AlphaScreen; 153.6 nM FLAG-NRF2, 150 nM His-KEAP1; Rep 1.
The target is the same in assay [24]. The assay is described as follows: AlphaScreen; 1228.8 nM FLAG-NRF2, 150 nM His-KEAP1; Rep 1.
For assay [25] the target is unchanged. Briefly: AlphaScreen; 4.8 nM FLAG-NRF2, 150 nM His-KEAP1; signal against NRF2 only.
Assay [26] shares this target. Briefly: AlphaScreen; 9.6 nM FLAG-NRF2, 150 nM His-KEAP1; Repeat 1 (same value as in Table 27).
Assay [27] shares this target. The assay is described as follows: AlphaScreen; 38.4 nM FLAG-NRF2, 150 nM His-KEAP1; against wild-type NRF2 isoform 1 = 100%.

Chain of KEAP1 (wild-type full-length), His-tagged (human) (Q14145 2-624 limits assumed): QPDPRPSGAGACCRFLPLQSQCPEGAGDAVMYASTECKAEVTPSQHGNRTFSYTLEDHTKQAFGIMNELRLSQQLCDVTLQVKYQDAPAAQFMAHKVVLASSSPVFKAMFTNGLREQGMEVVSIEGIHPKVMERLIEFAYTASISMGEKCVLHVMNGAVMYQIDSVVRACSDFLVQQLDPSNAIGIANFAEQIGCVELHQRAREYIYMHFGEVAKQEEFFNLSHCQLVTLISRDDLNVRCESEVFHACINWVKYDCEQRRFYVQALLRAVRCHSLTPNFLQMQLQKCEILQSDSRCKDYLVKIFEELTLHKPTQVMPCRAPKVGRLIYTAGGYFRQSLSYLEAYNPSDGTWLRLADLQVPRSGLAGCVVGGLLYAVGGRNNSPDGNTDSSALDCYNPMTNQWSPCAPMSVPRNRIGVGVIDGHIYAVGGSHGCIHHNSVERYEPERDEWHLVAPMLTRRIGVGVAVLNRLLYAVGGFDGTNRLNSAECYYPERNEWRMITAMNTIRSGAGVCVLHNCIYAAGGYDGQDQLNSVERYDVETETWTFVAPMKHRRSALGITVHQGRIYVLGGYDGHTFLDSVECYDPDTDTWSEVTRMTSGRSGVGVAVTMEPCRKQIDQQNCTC

B1: NRF2 isoform 1 (wild-type full-length), FLAG-tagged (protein)
chain: MMDLELPPPGLPSQQDMDLIDILWRQDIDLGVSREVFDFSQRRKEYELEKQKKLEKERQEQLQKEQEKAFFAQLQLDEETGEFLPIQPAQHIQSETSGSANYSQVAHIPKSDALYFDDCMQLLAQTFPFVDDNEVSSATFQSLVPDIPGHIESPVFIATNQAQSPETSVAQVAPVDLDGMQQDIEQVWEELLSIPELQCLNIENDKLVETTMVPSPEAKLTEVDNYHFYSSIPSMEKEVGNCSPHFLNAFEDSFSSILSTEDPNQLTVNSLNSDATVNTDFGDEFYSAFIAEPSISNSMPSPATLSHSLSELLNGPIDVSDLSLCKAFNQNHPESTAEFNDSDSGISLNTSPSVASPEHSVESSSYGDTLLGLSDSEVEELDSAPGSVKQNGPKTPVHSSGDMVQPLSPSQGQSTHVHDAQCENTPEKELPVSPGHRKTPFTKDKHSSRLEAHLTRDELRAKALHIPFPVEKIINLPVVDFNEMMSKEQFNEAQLALIRDIRRRGKNKVAAQNCRKRKLENIVELEQDLDHLKDEKEKLLKEKGENDKSLHLLKKQLSTLYLEVFSMLRDEDGKPYSPSEYSLQQTRDGNVFLVPKSKKPDVKKN
For B1, the A-counts in assay [1] turned out to be 2000 A-counts; in assay [2], 1900 A-counts; in [3], 3130 A-counts; in assay [4], 2780 A-counts; in assay [5], 1880 A-counts; in [6], 1780 A-counts. The values for the A-counts in assay [7] and in assay [8] were 2910 A-counts and 1590 A-counts, respectively. For the same molecule, the A-counts (NRF2 plus KEAP1) in assay [9] is 754 A-counts; in assay [10], 3130 A-counts; in assay [11], 1500 A-counts; in [12], 1560 A-counts; in assay [13] it was 1650 A-counts. Further, in assay [14], the % Disruption in Binding (Reported Values) came to 0%. Further, the S/N in assay [15] amounted to 1.

B2: NRF2 isoform 1 (Q75R full-length), FLAG-tagged (protein)
chain: MMDLELPPPGLPSQQDMDLIDILWRQDIDLGVSREVFDFSQRRKEYELEKQKKLEKERQEQLQKEQEKAFFAQLRLDEETGEFLPIQPAQHIQSETSGSANYSQVAHIPKSDALYFDDCMQLLAQTFPFVDDNEVSSATFQSLVPDIPGHIESPVFIATNQAQSPETSVAQVAPVDLDGMQQDIEQVWEELLSIPELQCLNIENDKLVETTMVPSPEAKLTEVDNYHFYSSIPSMEKEVGNCSPHFLNAFEDSFSSILSTEDPNQLTVNSLNSDATVNTDFGDEFYSAFIAEPSISNSMPSPATLSHSLSELLNGPIDVSDLSLCKAFNQNHPESTAEFNDSDSGISLNTSPSVASPEHSVESSSYGDTLLGLSDSEVEELDSAPGSVKQNGPKTPVHSSGDMVQPLSPSQGQSTHVHDAQCENTPEKELPVSPGHRKTPFTKDKHSSRLEAHLTRDELRAKALHIPFPVEKIINLPVVDFNEMMSKEQFNEAQLALIRDIRRRGKNKVAAQNCRKRKLENIVELEQDLDHLKDEKEKLLKEKGENDKSLHLLKKQLSTLYLEVFSMLRDEDGKPYSPSEYSLQQTRDGNVFLVPKSKKPDVKKN
For B2, the A-counts (NRF2 plus KEAP1) worked out at 1070 A-counts in assay [16] and 1300 A-counts in assay [17].

B3: NRF2 isoform 1 (I86V full-length), FLAG-tagged (protein)
chain: MMDLELPPPGLPSQQDMDLIDILWRQDIDLGVSREVFDFSQRRKEYELEKQKKLEKERQEQLQKEQEKAFFAQLQLDEETGEFLPVQPAQHIQSETSGSANYSQVAHIPKSDALYFDDCMQLLAQTFPFVDDNEVSSATFQSLVPDIPGHIESPVFIATNQAQSPETSVAQVAPVDLDGMQQDIEQVWEELLSIPELQCLNIENDKLVETTMVPSPEAKLTEVDNYHFYSSIPSMEKEVGNCSPHFLNAFEDSFSSILSTEDPNQLTVNSLNSDATVNTDFGDEFYSAFIAEPSISNSMPSPATLSHSLSELLNGPIDVSDLSLCKAFNQNHPESTAEFNDSDSGISLNTSPSVASPEHSVESSSYGDTLLGLSDSEVEELDSAPGSVKQNGPKTPVHSSGDMVQPLSPSQGQSTHVHDAQCENTPEKELPVSPGHRKTPFTKDKHSSRLEAHLTRDELRAKALHIPFPVEKIINLPVVDFNEMMSKEQFNEAQLALIRDIRRRGKNKVAAQNCRKRKLENIVELEQDLDHLKDEKEKLLKEKGENDKSLHLLKKQLSTLYLEVFSMLRDEDGKPYSPSEYSLQQTRDGNVFLVPKSKKPDVKKN
As to B3, the A-counts (NRF2 plus KEAP1) in assay [18] was 1680 A-counts; in [19], 2920 A-counts; in assay [20], 1970 A-counts; in assay [21], 1750 A-counts.

B4: NRF2 isoform 1 (I28V full-length), FLAG-tagged (protein)
chain: MMDLELPPPGLPSQQDMDLIDILWRQDVDLGVSREVFDFSQRRKEYELEKQKKLEKERQEQLQKEQEKAFFAQLQLDEETGEFLPIQPAQHIQSETSGSANYSQVAHIPKSDALYFDDCMQLLAQTFPFVDDNEVSSATFQSLVPDIPGHIESPVFIATNQAQSPETSVAQVAPVDLDGMQQDIEQVWEELLSIPELQCLNIENDKLVETTMVPSPEAKLTEVDNYHFYSSIPSMEKEVGNCSPHFLNAFEDSFSSILSTEDPNQLTVNSLNSDATVNTDFGDEFYSAFIAEPSISNSMPSPATLSHSLSELLNGPIDVSDLSLCKAFNQNHPESTAEFNDSDSGISLNTSPSVASPEHSVESSSYGDTLLGLSDSEVEELDSAPGSVKQNGPKTPVHSSGDMVQPLSPSQGQSTHVHDAQCENTPEKELPVSPGHRKTPFTKDKHSSRLEAHLTRDELRAKALHIPFPVEKIINLPVVDFNEMMSKEQFNEAQLALIRDIRRRGKNKVAAQNCRKRKLENIVELEQDLDHLKDEKEKLLKEKGENDKSLHLLKKQLSTLYLEVFSMLRDEDGKPYSPSEYSLQQTRDGNVFLVPKSKKPDVKKN
For B4, the A-counts in assay [22] was 1560 A-counts; in [23], 1400 A-counts; in assay [24], 995 A-counts; in assay [26], 1570 A-counts. In assay [25], this molecule returned a S/N of 2.9. Also, the Binding Percentage (%) in assay [27] turned out to be 63.5%.
